Changes are numbered by the printed parent chain. Each block holds one binder with its values, some of them ahead of it.
Experiments:
[1] = target: T1, Wildtype human PAR2 expressed on cells (human, UniProt P55085 37-397); assay: cell-based or functional assay
T1 sequence: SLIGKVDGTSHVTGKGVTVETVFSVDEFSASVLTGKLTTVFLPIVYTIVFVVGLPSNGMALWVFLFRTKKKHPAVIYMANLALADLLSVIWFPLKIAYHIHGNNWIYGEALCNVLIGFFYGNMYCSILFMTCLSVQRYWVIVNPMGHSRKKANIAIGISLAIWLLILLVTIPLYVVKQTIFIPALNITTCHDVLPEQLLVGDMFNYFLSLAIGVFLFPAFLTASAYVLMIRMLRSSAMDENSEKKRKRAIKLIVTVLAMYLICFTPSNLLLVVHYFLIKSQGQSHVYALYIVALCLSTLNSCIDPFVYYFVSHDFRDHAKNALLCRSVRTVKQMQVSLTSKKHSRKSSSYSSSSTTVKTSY

[2] = target: T2, Human PAR2 StaR incorporated into nanodiscs (construct not stated) (human, UniProt P55085 37-377, limits assumed); assay: SPR Biacore; human PAR2 StaR incorporated into nanodiscs
T2 construct: also called nanodisc-embedded StaR
T2 sequence: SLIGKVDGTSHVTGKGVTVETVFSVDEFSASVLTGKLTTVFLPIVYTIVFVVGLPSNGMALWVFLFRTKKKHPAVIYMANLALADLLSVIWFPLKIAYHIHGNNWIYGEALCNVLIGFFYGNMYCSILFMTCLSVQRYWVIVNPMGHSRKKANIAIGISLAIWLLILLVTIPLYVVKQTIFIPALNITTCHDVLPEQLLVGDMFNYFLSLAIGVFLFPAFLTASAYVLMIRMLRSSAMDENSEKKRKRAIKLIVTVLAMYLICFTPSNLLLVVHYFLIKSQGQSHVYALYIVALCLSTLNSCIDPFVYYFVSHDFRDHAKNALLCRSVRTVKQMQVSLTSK

[3] = target: T1, Wildtype human PAR2 expressed on cells; assay: cell-based or functional assay; remark: listed apart in the source
[4] = target: T3, Mouse PAR2 on Flp-In CHO cells (mouse, UniProt P55086 39-399); assay: cell binding, flow cytometry/IntelliCyt
T3 construct: whole, on cells
T3 sequence (looked up): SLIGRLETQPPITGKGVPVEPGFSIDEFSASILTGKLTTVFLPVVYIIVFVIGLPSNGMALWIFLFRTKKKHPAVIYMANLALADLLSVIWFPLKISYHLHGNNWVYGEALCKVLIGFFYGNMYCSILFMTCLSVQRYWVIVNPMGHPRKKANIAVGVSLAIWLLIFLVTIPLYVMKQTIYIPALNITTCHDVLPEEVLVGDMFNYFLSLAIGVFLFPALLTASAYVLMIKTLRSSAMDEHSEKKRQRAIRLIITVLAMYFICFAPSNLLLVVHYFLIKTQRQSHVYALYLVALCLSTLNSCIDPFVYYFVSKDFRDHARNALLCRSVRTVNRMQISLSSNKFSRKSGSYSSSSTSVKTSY

[5] = target: T4, PAR2-3: P157: 1-377, glycosylated, pBacMamHisStrepII, full length (human, UniProt P55085 26-377); assay: SPR Biacore T200; IgG captured on anti-human IgG, 250 nM PAR2 analyte; 1:1 model
T4 construct: detergent-solubilised analyte in SPR, or on infected cells in flow cytometry; also called FL-N PAR2 StaR; FL-N StaR; not shown: C-terminal StrepII and deca-histidine tags
T4 sequence: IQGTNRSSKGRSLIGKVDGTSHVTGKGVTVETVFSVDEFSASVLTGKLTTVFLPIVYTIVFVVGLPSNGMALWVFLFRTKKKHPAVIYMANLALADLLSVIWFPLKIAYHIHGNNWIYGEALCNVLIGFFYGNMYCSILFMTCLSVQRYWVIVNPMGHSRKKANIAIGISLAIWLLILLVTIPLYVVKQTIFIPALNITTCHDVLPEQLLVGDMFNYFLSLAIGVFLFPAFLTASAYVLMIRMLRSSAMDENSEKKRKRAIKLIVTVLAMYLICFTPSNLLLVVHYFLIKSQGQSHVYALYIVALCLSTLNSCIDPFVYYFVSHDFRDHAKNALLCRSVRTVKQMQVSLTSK
Experimental: The assay of PAR2 interaction with anti-PAR2 antibodies was carried out using a Biacore T200 instrument (GE Healthcare). Anti-human IgG antibody (Human Antibody Capture Kit, GE Healthcare) was immobilised by amine coupling on a sensor chip CM3 (GE Healthcare) to a surface density of 3500 to 4500 resonance units (RU). Immobilisation was carried out at 25° C. in HBS-EP+ buffer (GE Healthcare). The buffer was then changed to 50 mM HEPES, pH 7.5, 150 mM NaCl, 0.02% LMNG, 0.002% CHS. Each cycle of the PAR2-antibody interaction assay consisted of antibody capture (100 nM antibody injected for 2 min at a flow rate of 5 μL/min), PAR2 injection (blank or 250 nM, with contact and dissociation times of 2 and 3 minutes, respectively, at a flow rate of 20 μl/minute), and chip surface regeneration (30 seconds at 20 μl/minute) using the regeneration solution from Human Antibody Capture Kit (GE Healthcare). […] Measurements between each experimental data set were within the acceptable margins for this methodology.
The antibodies were captured on anti-human IgG chip surface followed by injection of 250 nM PAR2. The data were fitted to 1:1 interaction model.

[6] = target: T1, Wildtype human PAR2 expressed on cells; assay: cell-based or functional assay; remark: listed apart in the source
[7] = target: T4, PAR2-3: P157: 1-377, glycosylated, …; assay: SPR Biacore; IgG captured on anti-human IgG, 100 nM PAR2 analyte; 1:1 model
Experimental: The antibodies were captured on anti-human IgG chip surface followed by injection of 100 nM PAR2. The data were fitted to 1:1 interaction model except for clone ‘Y021160’ in which case heterogeneous ligand model was used and component with slow dissociation was used for comparison.
For three purified IgG1f_AEASS clones Y021171, Y022054 and Y022063 affinities to human PAR2-3 variant (P157: 1-377, glycosylated, pBacMamHisStrepII, full length) were determined by SPR immobilizing the IgG and probing with detergent (LMNG/CHS) solubilized FL-N PAR2 StaR. Affinities were 22 nM and 20 nM for Y022063 and Y021171, respectively.

[8] = target: T5, Cynomolgus PAR2 on BacMam-infected HEK293 cells (cynomolgus); assay: flow cytometry on HEK293F-cynoPAR2 (3.0E+06 cells/mL, w/ NaN3), overnight at about 5 C, S/BG [continued]
T5 construct: whole, on cells; also called cyno PAR-2; Cyno PAR2

[9] = target: T1, Wildtype human PAR2 expressed on cells; assay: flow cytometry on HEK293F-humanPAR2 (3.0E+06 cells/mL), S/BG [continued]

% Max Inhibition AP, IP-One [1]: 32%
Kd [2]: 31 nM
koff [2]: 0.037 s⁻¹
kon [2]: 1.2e+06 M⁻¹ s⁻¹
% Max Inhibition, Bovine Trypsin challenge, IP-One [3]: 19%
binding result [4]: no binding
Kd [5]: 20 nM
koff [5]: 0.011 s⁻¹
kon [5]: 530000 M⁻¹ s⁻¹
% Max Inhibition, AP challenge, IP-One [6]: 163%
Kd [7]: 70 nM
koff [7]: 0.029 s⁻¹
kon [7]: 410000 M⁻¹ s⁻¹
B1: Y021171 (antibody, V domains shown)
VH: EVQLVESGGGLVKPGGSLRLSCAASGFTFSSYSINWVRQAPGKGLEWVSSISSSSSYTYYAESVKGRFTISRDNAKNSLYLQMNSLRAEDTAVYYCARAASGFAIFDYWGQGTLVTVSS
VL: DIQMTQSPSSVSASVGDRVTITCRASQGISSWLAWYQQKPGKAPKLLIYAASSLQSGVPSRFSGSGSGTDFTLTISSLQPEDFATYYCQQTHYVPLTFGQGTKVEIKR

EC50 (read off the curve) [8]: ~2 nM
B2: Fab Y022870 (Fab, V domains shown)
VH: EVQLLESGGGLVQPGGSLRLSCAASGFSFSRYAITWVRQAPGKGLEWVSTISALGLETYYAESVRGRFTISRDNSKNTLYLQMNSLRAEDTAVYYCARGFHYTHSGKRYYYPFDIWGQGTLVTVSS
VL: QSALTQPASVSGSPGQSITISCTGTSSDVGSYNLVSWYQQHPGKAPKLMIYEGSKRPSGVSNRFSGSKSGNTASLTISGLQAEDEADYYCSQYATFIAFAVFGGGTKLTVLG

EC50 (read off the curve) [8]: ~4 nM
B3: Fab Y022883 (Fab, V domains shown)
VH: B2 VH with S30T, T35S, T50V, A53G, L54H, L56S, T58A, Y59N, R65K
VL: B2 VL

EC50 (read off the curve) [9]: ~10 nM
B4: Fab Y022877 (Fab, V domains shown)
VH: B2 VH with S28T, I34M, A53G, L56Q, T58A, E62G, R65K
VL: B2 VL

— patent US20250313621A1 (NXERA PHARMA UK, published 2025)
